Drawing on publication PMC10786891, “Massively parallel profiling of RNA-targeting CRISPR-Cas13d”, this text covers Kd for 23 molecules.

The labels stand for the following.
T1: EsCas13d, nuclease-dead (Eubacterium siraeum, UniProt B0MS50, R295A;H300A;R849A;H854A)
T1 sequence: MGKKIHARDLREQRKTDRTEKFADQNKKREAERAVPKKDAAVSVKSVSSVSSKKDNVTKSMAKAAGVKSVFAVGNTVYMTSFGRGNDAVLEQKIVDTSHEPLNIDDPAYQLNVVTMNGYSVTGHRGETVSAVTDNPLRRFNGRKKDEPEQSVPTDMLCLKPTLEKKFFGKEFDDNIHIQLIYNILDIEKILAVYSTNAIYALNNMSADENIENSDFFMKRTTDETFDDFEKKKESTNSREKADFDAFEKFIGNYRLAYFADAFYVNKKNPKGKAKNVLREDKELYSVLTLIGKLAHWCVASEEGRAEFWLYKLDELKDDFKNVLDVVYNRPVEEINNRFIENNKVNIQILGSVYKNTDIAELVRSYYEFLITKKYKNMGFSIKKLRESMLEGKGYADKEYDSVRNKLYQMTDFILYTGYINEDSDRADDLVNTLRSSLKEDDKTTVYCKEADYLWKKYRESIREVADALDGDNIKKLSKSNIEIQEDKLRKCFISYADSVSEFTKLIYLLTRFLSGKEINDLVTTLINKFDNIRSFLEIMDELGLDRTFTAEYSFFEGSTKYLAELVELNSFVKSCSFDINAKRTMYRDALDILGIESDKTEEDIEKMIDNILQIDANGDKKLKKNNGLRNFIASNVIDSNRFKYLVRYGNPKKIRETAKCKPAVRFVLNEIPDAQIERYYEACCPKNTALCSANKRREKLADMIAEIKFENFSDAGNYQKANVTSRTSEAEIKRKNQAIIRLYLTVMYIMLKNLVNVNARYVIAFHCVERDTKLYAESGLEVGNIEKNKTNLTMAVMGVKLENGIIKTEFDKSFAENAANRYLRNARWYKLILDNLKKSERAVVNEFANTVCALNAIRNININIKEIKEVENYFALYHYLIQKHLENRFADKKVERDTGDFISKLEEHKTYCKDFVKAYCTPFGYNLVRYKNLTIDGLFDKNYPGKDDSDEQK

B1: target 1 MT 5'PFS GGC 3'PFS CGC (mixed)
RNA 1: CACCCGUGCAAAAAUGCAGGGGUCUAAAACUGAGCGGAUAACCUCUCUAUGG
RNA 2: GGGAAUGGAUCCACAUCUACGAAUUCGGCCCAUAGAGAGGUUAUCCGCUCACGCAGAUCGGAAGAGCACACGU
B2: target 1 MT 5'PFS CUA 3'PFS UAC (mixed)
RNA 1: CACCCGUGCAAAAAUGCAGGGGUCUAAAACUGAGCGGAUAACCUCUCUAUGG
RNA 2: GGGAAUGGAUCCACAUCUACGAAUUCCUACCAUAGAGAGGUUAUCCGCUCAUACAGAUCGGAAGAGCACACGU
B3: target 1 U10G,A16U (mixed)
RNA 1: CACCCGUGCAAAAAUGCAGGGGUCUAAAACUGAGCGGAUAACCUCUCUAUGG
RNA 2: GGGAAUGGAUCCACAUCUACGAAUUCGUACCAUAGUGAGGUGAUCCGCUCACCGAGAUCGGAAGAGCACACGU
B4: target 1 MT 5'PFS GUA 3'PFS GAG (mixed)
RNA 1: CACCCGUGCAAAAAUGCAGGGGUCUAAAACUGAGCGGAUAACCUCUCUAUGG
RNA 2: GGGAAUGGAUCCACAUCUACGAAUUCGUACCAUAGAGAGGUUAUCCGCUCAGAGAGAUCGGAAGAGCACACGU
B5: target 1 MT 5'PFS CAA 3'PFS UAA (mixed)
RNA 1: CACCCGUGCAAAAAUGCAGGGGUCUAAAACUGAGCGGAUAACCUCUCUAUGG
RNA 2: GGGAAUGGAUCCACAUCUACGAAUUCCAACCAUAGAGAGGUUAUCCGCUCAUAAAGAUCGGAAGAGCACACGU
B6: target 1 MT 5'PFS UAG 3'PFS AUU (mixed)
RNA 1: CACCCGUGCAAAAAUGCAGGGGUCUAAAACUGAGCGGAUAACCUCUCUAUGG
RNA 2: GGGAAUGGAUCCACAUCUACGAAUUCUAGCCAUAGAGAGGUUAUCCGCUCAAUUAGAUCGGAAGAGCACACGU
B7: target 1 MT 5'PFS UAG 3'PFS AUC (mixed)
RNA 1: CACCCGUGCAAAAAUGCAGGGGUCUAAAACUGAGCGGAUAACCUCUCUAUGG
RNA 2: GGGAAUGGAUCCACAUCUACGAAUUCUAGCCAUAGAGAGGUUAUCCGCUCAAUCAGAUCGGAAGAGCACACGU
B8: target 1 MT 5'PFS UAG 3'PFS AUA (mixed)
RNA 1: CACCCGUGCAAAAAUGCAGGGGUCUAAAACUGAGCGGAUAACCUCUCUAUGG
RNA 2: GGGAAUGGAUCCACAUCUACGAAUUCUAGCCAUAGAGAGGUUAUCCGCUCAAUAAGAUCGGAAGAGCACACGU
B9: target 1 MT 5'PFS CUA 3'PFS UAA (mixed)
RNA 1: CACCCGUGCAAAAAUGCAGGGGUCUAAAACUGAGCGGAUAACCUCUCUAUGG
RNA 2: GGGAAUGGAUCCACAUCUACGAAUUCCUACCAUAGAGAGGUUAUCCGCUCAUAAAGAUCGGAAGAGCACACGU
B10: target 1 MT 5'PFS UUU 3'PFS AGC (mixed)
RNA 1: CACCCGUGCAAAAAUGCAGGGGUCUAAAACUGAGCGGAUAACCUCUCUAUGG
RNA 2: GGGAAUGGAUCCACAUCUACGAAUUCUUUCCAUAGAGAGGUUAUCCGCUCAAGCAGAUCGGAAGAGCACACGU
B11: target 1 MT 5'PFS GUA 3'PFS GAU (mixed)
RNA 1: CACCCGUGCAAAAAUGCAGGGGUCUAAAACUGAGCGGAUAACCUCUCUAUGG
RNA 2: GGGAAUGGAUCCACAUCUACGAAUUCGUACCAUAGAGAGGUUAUCCGCUCAGAUAGAUCGGAAGAGCACACGU
B12: target 1 MT 5'PFS GGC 3'PFS CGA (mixed)
RNA 1: CACCCGUGCAAAAAUGCAGGGGUCUAAAACUGAGCGGAUAACCUCUCUAUGG
RNA 2: GGGAAUGGAUCCACAUCUACGAAUUCGGCCCAUAGAGAGGUUAUCCGCUCACGAAGAUCGGAAGAGCACACGU
B13: target 1 MT 5'PFS GUC 3'PFS AUA (mixed)
RNA 1: CACCCGUGCAAAAAUGCAGGGGUCUAAAACUGAGCGGAUAACCUCUCUAUGG
RNA 2: GGGAAUGGAUCCACAUCUACGAAUUCGUCCCAUAGAGAGGUUAUCCGCUCAAUAAGAUCGGAAGAGCACACGU
B14: target 1 MT 5'PFS GUC 3'PFS UUG (mixed)
RNA 1: CACCCGUGCAAAAAUGCAGGGGUCUAAAACUGAGCGGAUAACCUCUCUAUGG
RNA 2: GGGAAUGGAUCCACAUCUACGAAUUCGUCCCAUAGAGAGGUUAUCCGCUCAUUGAGAUCGGAAGAGCACACGU
B15: target 1 MT 5'PFS GCA 3'PFS CAU (mixed)
RNA 1: CACCCGUGCAAAAAUGCAGGGGUCUAAAACUGAGCGGAUAACCUCUCUAUGG
RNA 2: GGGAAUGGAUCCACAUCUACGAAUUCGCACCAUAGAGAGGUUAUCCGCUCACAUAGAUCGGAAGAGCACACGU
B16: target 1 U8A,A9U (mixed)
RNA 1: CACCCGUGCAAAAAUGCAGGGGUCUAAAACUGAGCGGAUAACCUCUCUAUGG
RNA 2: GGGAAUGGAUCCACAUCUACGAAUUCGUACCAUAGAGAGGUUUACCGCUCACCGAGAUCGGAAGAGCACACGU
B17: target 1 MT 5'PFS GUC 3'PFS AUU (mixed)
RNA 1: CACCCGUGCAAAAAUGCAGGGGUCUAAAACUGAGCGGAUAACCUCUCUAUGG
RNA 2: GGGAAUGGAUCCACAUCUACGAAUUCGUCCCAUAGAGAGGUUAUCCGCUCAAUUAGAUCGGAAGAGCACACGU
B18: target 1 MT 5'PFS GUC 3'PFS AUG (mixed)
RNA 1: CACCCGUGCAAAAAUGCAGGGGUCUAAAACUGAGCGGAUAACCUCUCUAUGG
RNA 2: GGGAAUGGAUCCACAUCUACGAAUUCGUCCCAUAGAGAGGUUAUCCGCUCAAUGAGAUCGGAAGAGCACACGU
B19: target 1 MT 5'PFS GUA 3'PFS GAC (mixed)
RNA 1: CACCCGUGCAAAAAUGCAGGGGUCUAAAACUGAGCGGAUAACCUCUCUAUGG
RNA 2: GGGAAUGGAUCCACAUCUACGAAUUCGUACCAUAGAGAGGUUAUCCGCUCAGACAGAUCGGAAGAGCACACGU
B20: target 1 MT 5'PFS UAG 3'PFS AUG (mixed)
RNA 1: CACCCGUGCAAAAAUGCAGGGGUCUAAAACUGAGCGGAUAACCUCUCUAUGG
RNA 2: GGGAAUGGAUCCACAUCUACGAAUUCUAGCCAUAGAGAGGUUAUCCGCUCAAUGAGAUCGGAAGAGCACACGU
B21: target 1 MT 5'PFS GUC 3'PFS UUC (mixed)
RNA 1: CACCCGUGCAAAAAUGCAGGGGUCUAAAACUGAGCGGAUAACCUCUCUAUGG
RNA 2: GGGAAUGGAUCCACAUCUACGAAUUCGUCCCAUAGAGAGGUUAUCCGCUCAUUCAGAUCGGAAGAGCACACGU
B22: target 1 MT 5'PFS GUA 3'PFS GAA (mixed)
RNA 1: CACCCGUGCAAAAAUGCAGGGGUCUAAAACUGAGCGGAUAACCUCUCUAUGG
RNA 2: GGGAAUGGAUCCACAUCUACGAAUUCGUACCAUAGAGAGGUUAUCCGCUCAGAAAGAUCGGAAGAGCACACGU
B23: target 1 MT 5'PFS GUC 3'PFS AUC (mixed)
RNA 1: CACCCGUGCAAAAAUGCAGGGGUCUAAAACUGAGCGGAUAACCUCUCUAUGG
RNA 2: GGGAAUGGAUCCACAUCUACGAAUUCGUCCCAUAGAGAGGUUAUCCGCUCAAUCAGAUCGGAAGAGCACACGU

By Kd is commonly meant the equilibrium constant for the complex coming apart. High values mean weaker binding, low ones tighter binding.

The target of the data set is T1, EsCas13d, nuclease-dead. The data set can be described thus: crRNA (strand 1, pre-loaded); Mg2+; 40 mM Tris-HCl pH 7.5, 150 mM NaCl, 6 mM MgCl2, 1 mM DTT, 0.1% Tween-20, 0.2 mg/ml BSA; 25 C; 10 min per concentration, then washed. The conditions noted are these: tags: His6-TwinStrep-SUMO cleaved; N-terminal SNAP kept (SNAP-Surface 488); label: 3' end held by stalled T7 RNA polymerase.
In turn, B1 came in with a Kd of 15.5 ± 4 nM. The figure for B2 is approximately 3.9 nM; for B3 it is 58 ± 10 nM; for B4 it is 16.1 ± 2.3 nM. The molecule B5 showed a Kd of 18 ± 9 nM. The molecule B6 yielded a Kd of 31.6 ± 4.7 nM. B7 displayed a Kd of 32 ± 9 nM. The figure for B8 is 31.3 ± 4.95 nM.

Molecule B9 came in with a Kd of 6 ± 1.3 nM. Regarding B10, the Kd worked out at 68 ± 27.5 nM. The figure for B11 is 12.5 ± 1.35 nM; for B12 it is 22 ± 7 nM. To B13 belongs 26 ± 7 nM; to B14, 11.9 ± 1.75 nM; to B15, 35 ± 11 nM. As for B16, the Kd was determined as 12.9 ± 0.8 nM. This Kd is about 2.7-fold lower than that of the molecule before. The figure for B17 is 16.1 ± 2.15 nM. The figure for B18 is 24.5 ± 4 nM; for B19 it is 14.3 ± 3.05 nM; for B20 it is 46.5 ± 9 nM. The figure for B21 is 19.1 ± 4.5 nM; for B22 it is 11.8 ± 1.3 nM.

In the case of B23, the Kd was determined as 28.5 ± 11 nM.
